The target in this test is casposon-encoded Aciduliprofundum boonei T469 Cas1 (Aciduliprofundum boonei T469). Put plainly: SEC; Superdex 200 16/60, step of the purification after TEV cleavage; data not shown. A general note: SEC sorts molecules by how far they enter the pores of the column.

Broadly, the stoichiometry N is the number of molecules, sites or subunits per partner or assembly. With “casposon-encoded Aciduliprofundum boonei T469 Cas1 (enzyme)”, the stoichiometry N was determined as 2.

These data come from article PMC4678821.
